Paper PMC3153034

Target: recombinant Smc04048 cytochrome c from Sinorhizobium meliloti (Sinorhizobium meliloti)
Assay: SEC

recombinant Smc04048 cytochrome c from Sinorhizobium meliloti (natural protein)
stoichiometry N: 2
